This passage reports K (analogous to the dissociation constant of microclusters) results from PMC2172602.

This assay concerns the target αL-YFP/β2 (LFA-1 with dimerizing YFP on αL) on K562 cells (UniProt P20701). Put plainly: FRET or BRET.
Chain of UniProt P20701 (P20701 whole entry, looked up): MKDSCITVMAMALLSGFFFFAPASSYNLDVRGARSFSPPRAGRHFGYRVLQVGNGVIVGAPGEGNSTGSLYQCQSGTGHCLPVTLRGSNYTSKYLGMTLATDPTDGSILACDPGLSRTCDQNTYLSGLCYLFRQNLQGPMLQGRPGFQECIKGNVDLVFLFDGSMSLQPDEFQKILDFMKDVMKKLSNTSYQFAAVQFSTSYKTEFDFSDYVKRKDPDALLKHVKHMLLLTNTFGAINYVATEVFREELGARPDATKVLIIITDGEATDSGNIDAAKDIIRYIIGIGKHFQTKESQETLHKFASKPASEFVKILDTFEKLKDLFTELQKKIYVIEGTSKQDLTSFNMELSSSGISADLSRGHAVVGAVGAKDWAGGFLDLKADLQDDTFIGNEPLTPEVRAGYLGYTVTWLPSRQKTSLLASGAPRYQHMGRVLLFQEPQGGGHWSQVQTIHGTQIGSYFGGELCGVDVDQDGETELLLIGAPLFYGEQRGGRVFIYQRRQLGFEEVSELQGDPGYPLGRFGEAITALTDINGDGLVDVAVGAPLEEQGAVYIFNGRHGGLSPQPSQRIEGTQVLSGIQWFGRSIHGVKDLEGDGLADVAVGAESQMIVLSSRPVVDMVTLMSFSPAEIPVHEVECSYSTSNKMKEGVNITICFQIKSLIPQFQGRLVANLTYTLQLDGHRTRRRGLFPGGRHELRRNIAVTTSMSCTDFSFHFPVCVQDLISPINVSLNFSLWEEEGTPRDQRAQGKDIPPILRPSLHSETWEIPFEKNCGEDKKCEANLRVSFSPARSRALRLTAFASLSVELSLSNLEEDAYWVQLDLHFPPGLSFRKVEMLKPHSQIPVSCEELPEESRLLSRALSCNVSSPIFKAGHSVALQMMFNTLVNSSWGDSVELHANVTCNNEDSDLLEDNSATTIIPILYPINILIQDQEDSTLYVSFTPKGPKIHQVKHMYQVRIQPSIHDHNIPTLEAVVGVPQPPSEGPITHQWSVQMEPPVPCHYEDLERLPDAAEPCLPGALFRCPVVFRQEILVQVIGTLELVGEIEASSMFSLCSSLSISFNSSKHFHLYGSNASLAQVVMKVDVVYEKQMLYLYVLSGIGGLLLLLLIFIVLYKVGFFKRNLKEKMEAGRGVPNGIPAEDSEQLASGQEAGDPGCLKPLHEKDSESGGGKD

As for “αL-CFP/β2 (LFA-1 with dimerizing CFP on αL) on K562 cells (from UniProt P20701 26-1170; P05107 23-769) (receptor)”, the K (analogous to the dissociation constant of microclusters) was determined as 532.
